In patent publication US6015555, “Transferrin receptor specific antibody-neuropharmaceutical or diagnostic agent conjugates” (Alkermes, Inc., dated 2000):

Experiments:
rat transferrin receptor [1] = target: T1, rat transferrin receptor (rat, UniProt Q99376)
rat transferrin receptor [2] = target: T1, rat transferrin receptor; remark: listed apart in the source
rat transferrin receptor [3] = target: T1, rat transferrin receptor; remark: listed apart in the source
[4] = target: transferrin receptor on monkey (cynomolgous) brain capillaries (monkey (cynomolgous))
rat transferrin receptor [5] = target: T1, rat transferrin receptor; test: immunohistochemistry on rat brain sections (brain capillary endothelial cells)
Excerpt: Biodistribution and Brain Uptake of Anti-Human Transferrin Receptor Antibodies in Cynomolgous Monkeys A collection of 32 murine monoclonal antibodies which recognize various epitopes on the human transferrin receptor were examined for reactivity with brain capillary endothelial cells in sections from human, monkey (cynomolgous), rat and rabbit brain samples by the immunohistochemical methods described in Example 1. These antibodies were obtained from Dr. Ian Trowbridge of the Salk Institute, LaJolla, Calif. […] Two antibodies reacted very weakly with rabbit brain capillaries and none reacted with rat. […] These 2 antibodies are herewithin referred to as 128.1 and Z35.2.

Molecule: OX-26 murine monoclonal antibody
- percent of the injected dose of 14C-labelled antibody in the brain (% of the injected dose) (rat transferrin receptor [1]): 0.9
- distribution of radiolabelled antibody between brain capillary fraction and parenchyma fraction (capillary depletion) (rat transferrin receptor [2]): 0.36 % ID

Molecule: OX-26-methotrexate (MTX) conjugate linked via a gamma-hydrazid (antibody)
- distribution of 3H-MTX label between brain capillary fraction and parenchyma fraction (capillary depletion) (rat transferrin receptor [3]): 4.5 fold

B1: murine monoclonal antibody 128.1 (antibody, V domains shown)
VH: EVQLQQSGPELVKPGASMKISCKASGYSFTGYTMNWVKQSHGENLEWIGRINPHNGGTDYNQKFKDKAPLTVDKSSNTAYMELLSLTSGDSAVYYCARGYYYYSLDYWGQGTSVTVSS
VL: QIVLTQSPAIMSVSPGEKVTMTCSASSSIRYIHWYQQRPGTSPKRWIYDTSNLASGVPARFSGSGSGTSYSLTISSMEAEDAATYYCHQRNSYPWTFGGGTRLEIR
- share of 14C-labelled antibody in the brain parenchyma (capillary depletion) 24 hours after injection into a cynomolgous monkey [4]: 90%
- binding result (rat transferrin receptor [5]): no binding
